What is called IC50 is the midpoint of a concentration-inhibition curve. A lower IC50 goes with greater potency in that assay.

The target in test [1] is purified HLA-A2.1 molecules (human). Particulars: remark: other sources report otherwise.
The target in test [2] is purified HLA-A11 molecules (human).

B1: HBV Env 335 (HBV env 335-343) peptide … (peptide)
peptide: WLSLLVPFV
modifications: not checked
Regarding B1, in test [1], the concentration for half-maximal inhibition (IC50) was 5 nM.

B2: HIV Env 49 (HIV env 49-58) peptide … (peptide)
peptide: TVYYGVPVWK
modifications: not checked
In test [2], B2 yielded an IC50 of 4 nM.

The record behind these values is US20030220285A1.
